Source: the DeepSol protein solubility set

Test: soluble on expression in E. coli; label from the status in PepcDB or PDB records

| Sequence | soluble on expression in E. coli |
| --- | --- |
| NDPDADRFAVAARKADGEYQMLTGDQVGSLFGHYLLSQTDAHRQLVGNTIVSSSLLSKIAAAHGARYYQTLTGFKWLTNVAMQEQTEQHQFLFAYEEALGYTIGSTVWDKDGLSALVAFAQLAAELNAQGKTVWDQLEALYRQHGLHVN | not soluble |
| HHHHHHSEEEAIQIIADPPLPPASFTLRDYVDHSETLQKLVLLGVDLSKIEKHPEAANLLLRLDFEKDIKQMLLFLKDVGIEDNQLGAFLTKNHAIFSEDLENLKTRVAYLHSKNFSKADVAQMVRKAPFLLNFSVERLDNRLGFFQKELELSVKKTRDLVVRLPRLLTGSLEPVKENMKVYRLELGFKHNEIQHMITRIPKMLTANKMKLTETFDFVHNVMSIPHHIIVKFPQVFNTRLFKVKERHLFLTYLGRAQYDPAKPNYISLDKLVSIPDEIFCEEIAKASVQDFEKFLKTL | soluble |
| MAVRFIREDGDEILRKVSKKVDVIDERIKTLLDDMAETMYAANGVGLAAPQVGVLKRVVVIDVGDGLMELINPEIVEQEGEQIDIEGCLSIPGVAGEVKRPARVVVEALNREGEKITVEGKELLAVALCHEIDHLDGILFTDKVIRFIDEDEMERRRENKRRNKIRQNKG | not soluble |
| PDVRRDKPVTGEQIEVFANKLGEQWKILAPYLEMKDSEIRQIECDSEDMKMRAKQLLVAWQDQEGVHATPENLINALNKSGLSDLAESLTNDNETNS | soluble |
| MHYCEPGWFELIRHRLAFFKDNAAPFKILFLADLHYSRFVPLSLISDAIALGIEQKPDLILLGGDYVLFDMSLNFSAFSDVLSPLAECAPTFACFGNHDRPVGTEKNHLIGETLKSAGITVLFNQATVIATPNRQFELVGTGDLWAGQCKPPPASEANLPRLVLAHNPDSKEVMRDEPWDLMLCGHTHGGQLRVPLVGEPFAPVEDKRYVAGLNAFGERHIYTTRGVGSLYGLRLNCRPEVTMLELVLEHHHHHH | not soluble |
| EYGYEDLRESSNSLLNHQLSEIDQARLYSCLDHMREVLGDAVPDDILTEAILKHKFDVQKALSVVLEQDG | soluble |
| MGSDKIHHHHHHMPKRIVKLEAGYNCRDLGGYVSQDGRTVKWGRLYRSGSLSHLTKADQAELARRKIVVDCDLRSRHEQDNFPDKLWPGSKLVDAHFYSESGDEEEEAEAAWEKYSSKLPKLSYLAMVYQQNLVVPRTGLVMREIFKEMLDLEDDEALLYHCSMGKDRTGMVSVIVLMALGLEDREILRDYLLSREYSRDWDEADENDRLGKQIAKMNQTQVSQTAFYGITETIRQMWGGFDRYFASLGFDQGDLDRLRDKFLE | not soluble |
| GIDPFTMLRPRLCTMKKGPSGYGFNLHSDKSKPGQFIRSVDPDSPAEASGLRAQDRIVEVNGVCMEGKQHGDVVSAIRAGGDETKLLVVDRETDEFFKKCRVIPSQEHLNGPLPVPFTNGEIQKENSREALAEAALESPRPALVRSASSDTSEELNSQDSPPKQDSTAPSSTSSSDPILDFNISLAMAKERAHQKRSSKRAPQMDWSKKNELFSNL | soluble |
| GHELSAIIPRSSWLAQKPMDEPLPLQLPVKYVVILHTATESSEKRAINVRLIRDMQSFHIESRGWNDIAYNFLVGCDGNIYEGRGWKTVGAHTLGYNRISLGISFIGCFMKELPTADALNMCRNLLARGVEDGHISTDYRLICHCQCNSTESPGRRLYEEIQTWPHFYNIEEEEQ | soluble |
| MGPAHKARDDGEGGWSMNSHPPLSVQTLNTLDRKAFTTALHFAFELSPWVVERAWDARPFASVETMHAAMMAVLDAASTADKLALIRAHPELAGKAAIAKQLTAESNAEQASAGLDKLTPDEFARFHALNAAYNTRFGFPFIICVRLNDKASILEAMAARLSNDEASEIAQAITQIGLISKLRLLDAVTHLEHHHHHH | not soluble |
| MAKLTALTLLGMGLALFDRQKSSFQTRFNVHREVTPVELPNCNLVKGIDNGSEDLEILPNGLAFISSGLKYPGIMSFDPDKSGKILLMDLNEKEPAVSELEIIGNTLDISSFNPHGISTFIDDDNTVYLLVVNHPGSSSTVEVFKFQEEEKSLLHLKTIRHKLLPSVNDIVAVGPEHFYATNDHYFIDPYLKSWEMHLGLAWSFVTYYSPNDVRVVAEGFDFANGINISPDGKYVYIAELLAHKIHVYEKHANWTLTPLRVLSFDTLVDNISVDPVTGDLWVGCHPNGMRIFFYDAENPPGSEVLRIQDILSEEPKVTVVYAENGTVLQGSTVAAVYKGKLLIGTVFHKALYCDL | soluble |
| MGSDKIHHHHHHASPKKVAPEKKGVETINRATAEAHIGFLACDELEGREAGWKGGRIAGNYIISCLKQMGIKPLDGDYIQPFDVYHAERQVKGKRWQVHPDSIAELKKVVYQKLALRNILGKIEGKNPNEIVIIGAHYDHIGYDPMLEGDQIYNGADDNASGVQAVLQVARAFLATGEQPERTVIFAFWDGEEKGLLGSRYFAMNYPDIKKVKGYLNYDMIGRNNREDQPDYFVYFYTAAHQAFGDWLKKDIEDYRLQLSPDYRAWDNPVGGSDNGTFAKLGIPIIWYHTDAHPDYHLPGDETQKINWLKIVDITKASFLAMWKLANEKKY | not soluble |
| MASGDFRLCDVVLDDSIGRSTPDVEHERAVAIFDLIEENTFEPAGHDGGPYRLHISLVDAKLVFAIKTEDDKDVSTHILSLTPFRRIIKDYFLICESYYEAIRSSTPSQIEAIDMGRRGIHNDGSQTLMDRLSGKIKVDFDTARRLFTLVCVLYWRG | not soluble |
| GPGSMLRRTLYALTRPRDSAAASRDKAHFDVCVIGGGPAGIAAALRAADYNKRVCVVEKARLGGNDLWDGALQSKTMWECSAIMAKMRGDAAMRLYGESLDRYLEIDEVKMRQSMEQVSRIREEQIQAALKASPNVELVLGRATFSSNHEIQCHSKRTKEFRSITADYFIVATGSKPRKHPYVAADGRLVMTSDHIMRAPLPKSLVIVGAGVIGCEFASIIGRLGKTKVSIIDKAPHILPREDPDIVRMIESGMDRAGIVVHHNSDLYDMQPWEETVEEAKARHPADPAPQSGVQYTVMDRTTRKLTTFQVERALISIGRVPDYSRLGIENTTLKTRGSQLHVNEFGQCVGTPHIFAVGDAATHMQLVSMGEAQAKLAVDYIYGTEPKVVPNLTETMSSVAFLTRAVASVGYNESQCREKGIAYIAARYSYEVVSRAVAAANTKGFVKIICADDPERRILGVRALGMNASTLVDIGALAIQNGQGVFDLAGRLTAYPAVSQAFQECLRSILDLSAQLHADPARGVKLTKWTPPDMSRGVAYKGKATAPGESSPRQSGWVIH | not soluble |
| MGANGSTEDYNAIAEETRNYQIQEAARRKEHLEALERQDAKRRETLAETTRAQLAAAEAEQKRKDEMQQKMMESNLAAQVARNKRIDNAQNQQNLNIEKEIENSNNWLDKQRTANQAVMAQRYTDHQNVLTREKERLTETEIRLENNLVDAKKMLENTQNQFNDDKIGYHEKKVQQMNENASKIELLVSQTTNLVLEQEKNDIVHKLAIQGMEQRTILNRGAIIQAQSLDSVEREFIDAVNSTRQKGNEVANSISRMGSYAFQLKPEDPVWSRTSQVAYCKKEIQKVDLLLEVLSDNTEEISKQRENRNQEVLRCHAVACLIQNAITTVRNSLNQFGASLQENTFTNCIGYYTDLLEKNKTLTDVIVQLPAVSRSNHTTSAIMYSSQRFAIDVQNDRLALEQKGQLALQNMINGNGGNTT | not soluble |
| FSPLSSQSSACCFAYIARPLPRAHIKEYFYTSGKCSNPAVVFVTRKNRQVCANPEKKWVREYINSLEMS | soluble |
| MVKVYIHDNKVDSDYRAPHNSGTELSLDELAKLGVIYKYCANEEEVNEIARQREYKNRDVVNICEGSFKSEAEFNEKLATFYQEHLHEDEEIRYCLEGAGYFDVRDASTPENWIRCLVESGDLLILPPGIYHRFTLTTSNHIKALRLFKDEPKWQAINRSNQADSLPVRKDYIALINQY | soluble |
| MSLGKYFGTDGVRGEANVELTPELAFKLGRFGGYVLSQHETERPKVFVARDTRISGEMLESALIAGLLSVGIEVYKLGVLATPGVSYLVRTEKASAGVMISASHNPALDNGIKFFGNDGFKLADDQELEIEALLDAPEDTLPRPSAEGLGTLVDYPEGLRKYEKFLVTTGTDLSGMTVALDTANGAASVSARDVFLDLNAEIAVIGEKPNGLNINDGVGSTRPEQLQELVKETGADLGLAFDGDSDRLIAVDETGEIVDGDRIMFIIGKYLSEKGLLAHNTIVTTVMSNLGFHKALDKQGINKAITAVGDRYVVEEMRSSGYNLGGEQSGHVIIMDYNTTGDGQLTAIQLAKVMKETGKSLSELAAEVTIYPQKLVNIRVENSMKERAMEVPAIANIIAKMEDEMAGNGRILVRPSGTEPLLRVMAEAPTDAEVDYYVDTIADVVRTEIGCDNEGHHHHHH | soluble |
| MGSDKIHHHHHHMARYRVHVNDPLDKEATQLLMNKEELEVTSEHLEKDELMKIIPEVDVLVVRSATKVTADIIEAGKNLKIIARAGIGLDNIDVQKAKEKGIKVLNTPGASAPSVAELAMGLMLACARHIARATVSLKEGKWEKKALKGKELLGKTLGLIGFGNIGQEVAKRALAFGMKIIAYDPAKPETDLPVEYVDLDTLFKESDFISLHVPLTESTRHIINRESIAKMKDGVIIVNTARGGTIDEEALYEEVVSGKVYAAGLDVFEVEPPTDEIRRKLLSLDNVVATPHIGASTAEAQRRVGIELVEKIFKELGI | not soluble |
| MLHLPTIETSSAGRRRRKANSEVDSGAEEPTATSSSDDKSDYRLDLKKRLTTFLTSNSQMASSDSGVSGVESTVEHDLSELKASDSPMSHDGADSPRPELDRTDIVVCGECHTSFSLSCFSNFIEHKVSNCGGKLTPSDDCEVTPRNFDRSRRRTFNPAALIRCGRSTSANALLPNYNMDVTTDTNDLGSSSKSLTCCNCKERFGDVWTLLKHSYDIHGLRVCQEAIPESDVSVTSTSSPTSNESMHMSSRYNHNDTSSKIMHQTIKSESTMMNSFCSERLKEIVTRAGEQDQKPLMALRRLMPSEETEEEQVSAFTSTSLLNSRASQPQLPTVSSSAGFQTSGSMPNVWMQPSMLAAMQEYYASIQQMPYPMTNSTAVALLNISNNLQQQQQQQQQLQQQQQNLIAAQPQVATPQPPAPTPLFQSLNRLSTADESSYTPRPASVAIRRRASPEEELTPPRKSMKIEEEDQLIVVDDGELAEPAARKPNNIKKERCNFCNKVFTNRSNLIVHLRSHTGEKPYKCQLCPYACAQSSKLTRHMRTHGQQGKETYHCYICRMPFSVHSTLEKHMRKCVVSTQGRREGGSPPERSIRPTPSALAEATSLLALSAPSISVPPQPQASTVGQNQSQSHQIVLNWLHALNASNSTPTATSKEDMIEADEDMEETEASDLQSHQPLTSESNQIATVAN | not soluble |
| MSNYPLHQACMENEFFKVQELLHSKPSLLLQKDQDGRIPLHWSVSFQAHEITSFLLSKMENVNLDDYPDDSGWTPFHIACSVGNLEVVKSLYDRPLKPDLNKITNQGVTCLHLAVGKKWFEVSQFLIENGASVRIKDKFNQIPLHRAASVGSLKLIELLCGLGKSAVNWQDKQGWTPLFHALAEGHGDAAVLLVEKYGAEYDLVDNKGAKAEDVALNEQVKKFFLNNVVDKLAAALEHHHHHH | soluble |
| MGSDKIHHHHHHMKKQWNEFVRDRMSEKNLKQEDIAEAIERTQGAVGHWLTGRRSPNFMEVAKMLNATGTDQVILNSDGTIEDIEFIGIPKKGLVKVIGEATMGTDGSVDIEEIHVGYIDIFTTDPKAFCLRVKGSSMEPRIHSGEFVLVEPQSPFSNGDDVFIRTKDGKNMIKILDYQKDGEYRFSSINNDHKPFNLAIDEVELVYYVAGILKKSRFVDLEP | not soluble |
| SKKVYAFDVQEQALGKTSQRLSDLGIENTELILDGHENLDHYVREPIRAAIFNLGYLPSADKSVITKPHTTLEAIEKILDRLEVGGRLAIMIYYGHDGGDMEKDAVLEYVIGLDQRVFTAMLYQPLNQINTPPFLVMLEKLQ | not soluble |
